Results as given in article PMC6921966 (2019).

Target: M2e-VHH-23m (llama)
Assay: ITC

Sequence of M2e-VHH-23m (llama) (VHH, as listed by the source): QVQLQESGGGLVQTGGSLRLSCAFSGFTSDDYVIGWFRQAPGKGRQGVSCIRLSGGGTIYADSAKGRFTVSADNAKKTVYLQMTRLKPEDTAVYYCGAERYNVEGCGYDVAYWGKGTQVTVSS

## SLLTEVETPIRNEWGCRCNDSSD [human H3N2 M2e peptide]
  Ka: 1.37e+06 M⁻¹
